The nature of the series: yeast display, Sf9 membrane polyspecificity reagent, FACS + sequencing; frameworks hold sequencing errors. An outline of the steps:
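Sorting gates, low and high (top ~1%), were placed on anti-HA fluorescence to track expression and on streptavidin fluorescence to track reagent binding. A clone's polyreactivity label is taken from the gate it came out of. The reagent was 10% biotinylated, detergent-solubilized Sf9 membrane, applied for 1 hour at 4 °C to galactose-induced yeast display cells.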
Turning to “QVQLVESGGGLVQAGGSLRLSSAASGRIFRYYAMGWYSQAPGKERELVAAISWSGGNSYYADSVKGRFTISRDNAKNTVYLQMNSLKTEDTAVYYCNAYYLPSRYDYWGQGTQVTVSS”, the “polyreactivity (PSR sort gate)” value is reported as “high polyreactivity”.
Take “QVQLVESGGGLVQAGGSLRLSCAASGITFDGNAMGWYRQAPGKERELVAAITSGGSTYYADSVKGRFTISRDNAKNTVYLQMNSLKPEDTAVYYCAKEPPPVKGDYWGQGTQVTVSS”: the “polyreactivity (PSR sort gate)” value is recorded as “low polyreactivity”.
In the case of “QVQLVESGGGLVQAGGSLRLSCAASGSIFWSYAMGWYRQAPGKERELVADSVKGRFTISRDNAKNTVYLQMNSLKPEDTAVYYCAADSPSAPVYLYDYWGQGTQVTVSS”, the “polyreactivity (PSR sort gate)” value is recorded as “low polyreactivity”.
For “QVQLVESGGGIVQAAGSLRLSCAASGFTIYYYAMVWYRQAPGKERELVASITSGGSTYYADSVKGRFTISRDNAKNTVYLQMNSLKPEDTAVYYCAITRFHSKEGVYWGQGTQVTVSS”, the “polyreactivity (PSR sort gate)” value was “low polyreactivity”.
Then “QVQLVESGGGLVQAGGSLRLSCAASGFIFRYYAMGWYRQAPGKEREFVAVISSGGGRTYYADSVKGRFTISRDNAKNTVYLQMNSLKPEDTAVYYCAKGYRYWVRIVRSFTSYDYWGQGTQVTVSS”, with “high polyreactivity”; and “QVQLVESGGGLVQAGGSLRLSCAASVIIFNLYAMGWYRQAPGKERELVAAISWSGGSTYYADSVKGRFTISRDNAKNTVYLQMNSLKPEDPAVYYCATSFLYPYFDEDDYWGQGTQVTVSS”, with “high polyreactivity”; and “QVQLVESGGGIVQAGGRLRLSCAASGSILAGYALGWYRQSPGKERELVAAISESGGNTYYADSVKGRFTISRDNAKNTVYLQMNSLKPEDTAVYYCAADLGYGPLRELEYWGQGTQVTVSS”, with “low polyreactivity”.
On to “QVQLVESGGGLVQAGGSLRLSCAASGSTFGVYAMGWYRQAPGKERELVAAISESGGNTYYADSVKGRFTISRDNAKNTVYLQLNSLKPEDPAVYYCNTDVVVVHYIQAYYWGQGTQVTVSS”, for which the “polyreactivity (PSR sort gate)” value is listed as “low polyreactivity”.
Consider “QVQLVESGGGLVQAGGSLRLSCAASGSIIRTYAMGWYRQAPGKERELVAAISGSGSRTYYADSVKGRFTISRDNAKNTVYLQMNSLKPEDSAVYYCAADPGTPRYQFLWYGYWGQGTQVTVSS”, for which the “polyreactivity (PSR sort gate)” value is on record as “low polyreactivity”.
Then “QVQLVESGGGLVQAGGSLRLSCAASGSIFRKNAMGWYRQAPGKERELVAAISSGGGGTYYADSVKGRFTISRDNAKNTVYLQMNSLKPEDTAVYYCNKREGKGGNTKYDYWGLGTQVTVSS”, with “low polyreactivity”.
Then “QVQLVESGGGLVQAGGSLRLSCAASGITFGEYAMGWYRQAPGKERQLVAAITTSGTSTYYADSVKGRFTISRDNAKNTDYLQMNSLKPEDTAVYYCAAYSRAAAGFYSSRRDYYWGQGTQVSVSS”, with “low polyreactivity”; and “QVQLVESGVGIVQAGGSLRLSCAASGFTFDNYVMGWYRQAPGKERELVAAISTGSRTYYADSVKGRFTISRDNAKNTVYLQMNSLKPEDTAVYYCAASYVRRSWYSNDYWGQGTQVTVSS”, with “high polyreactivity”; and “QVQLVESGGGLVQAGGSLRLSCAASGSNLVQNAMGWYRQAPGKERELVAAINWSGASTYYADSVKGRFTISRDNAKNTVYLQMNSLKPEDTAVYYCATVTLFFTDYYSWADVYTEYDYWGQGTQVTVSS”, with “low polyreactivity”.
Then “QVQLVESGGGLFQAGGSLRLSCAASGSTFDTYAMGWYRQAPGKERELVAAISYRGGNTYYADSVKGRFTISRDNAKNTVYLQMNSLKPEDTAVYYCNAGVSIGRSRRYDYWGQGTQVTVSS”, with “low polyreactivity”; and “QVQLVESGGGLVQAGGSLRLSCAASGFIFYPYVMGWYRQAPGKERELVATIRTDGRTSYADSVKGRFTISRDNAKNTVYLQMNSLKPEDTAVYYCNTKYVRYYRRYDSWGQGTQVTVSS”, with “high polyreactivity”; and “QVQLVESGGGLVQAGGSLRLSCAASGSNFPGYAMGWYRQAPGKERELVAAISTSGGSTYADSVKGRFTISRDNAKNTVYLQMNSLKPEDTAVYYCAATYTYTSPVYYSLDGPWPYDYWGQGTQVTVSS”, with “low polyreactivity”.
In the case of “QVQLVESGGGLVQAGGSLRLSCAASGSIFNQYAMGWHRQAPGKERELVAAISSSGGSTYYADSVKGRFTISRDNAKNTVYLQMNSLKPEDTAVYYCAARPSGRGYYLLGYWGQGTQVTVSS”, the “polyreactivity (PSR sort gate)” value is given as “low polyreactivity”.
Then “QDQHVESGGGLVQAGGSLRLSCDASGITFWYYAMGWYRQAPGKERELVAAISRRGGATYYADSVKGRFTISRDNAKNTVYLQLNSLKPEDTAVYYCNALLAGRRVARGYDSWGQGTQVTVSS”, with “high polyreactivity”; and “QVQLVESGGGLVQAGGSLRLSCAASGITFDGYAMGWYRQAPGKERELVAAIRSSGGSTYYADSVKGRFTISRDNAKNTVYLQMNSLKPEDTAVYYCATDHAQKFRYRSPREYWGQGTQVTVSS”, with “low polyreactivity”.
Then “QVQLVESGGGLVQAGGSLRLSCAASGYTLGYYAMGWYRQAPGKERELVASITERGGSTYYADSVKGRFTISRDNAKNTVYLQMNSLKPEDTAVYYCAADWDPSWWLFPTSSYDYWGQGTQVTVSS”, with “low polyreactivity”.
Consider “QVQLVESGGGLVQAGCSLRLSCAACGSIFRAYAMGWYRQAPGKERELVADISRSGGSTYYADSVKGRFTISRDNAKNTVYLQMNSLKPEDTAFYYCAASYLGGQWRALGYDYWGQGTQVTVSS”, for which the “polyreactivity (PSR sort gate)” value is recorded as “low polyreactivity”.
Then “QVQLVESGGGLVQAGGSLRLSCAASGGIFWAYAMGWYRQAPGKERELVAAITTRGTSTYYADSVKGRFTISCDNAKNTVYLQMNSLKPEDTAVYYCAAALYGYYSTLTTYWGQGTQVTVSS”, with “high polyreactivity”.
“QVQLVESGGGLVQAGGSLRLSCAASGYTFATKVMGWYRQAPGKERELVATITGSGGSTYYADSVKGRLTISRDNAKNTVYLQMNSLTPEDTAVYNCAARLYGWYYGGYTRYDYWGQGTQVTVSS”: the “polyreactivity (PSR sort gate)” value is recorded as “high polyreactivity”.
In the case of “QVQLVESGGGLVQAGGSLRLSCAASGSTLARYAMGWYRQAPGKERELVAAISSDGRTYYADSVKGRFTISRDNAKNTVYLQIYSLKPEDTAVYYCATLRPYAYPQYDSWGQGTQVTVSS”, the “polyreactivity (PSR sort gate)” value is listed as “high polyreactivity”.
Then “QVQLVESGGGLVQAGGSLRLSCAASGSIFTRYAMGWYRQAPGKERELVADIRTRGGGTYYADSVKGRFTISRDTAKNTVYLQMNSLKPEDTAVYYCAKLWYHVYGSSPYGYWGQGTQVTVSS”, with “high polyreactivity”; and “QVHLVESGGGLVQAGGSLRLSCAASGFTFYKYVMGWYRQAPGKERELVAAITTSGGSTYYADSVKGRFTISRDNAKNTVYLQMNSLKPEDTAVYYCNARSLHTSEGDYWGQGTQVTVSS”, with “low polyreactivity”.
Regarding “QVQLVESGGGLVQAGGSHRLSCAASGSTFTWYPMGWYRQEPGKERELVADISYGGGSTYYADSVKGRFTISRDNAKNTVYLQMNSLKPEDTAVYYCAAESIPYYRYDYWGQGTQVTVSS”, the “polyreactivity (PSR sort gate)” value was “low polyreactivity”.
As for “QVQLVESGGGLVQAGGSLRLSCAASGTTFYYNAMGWYRQAPGKERELVARISRSGGSTYADSVKGRFTISRDNAKNTVYLQMNSLKPEDTAVYYCNADAYGTPEFTSYAVRYDYWGQGTQVTVSS”, the “polyreactivity (PSR sort gate)” value was “low polyreactivity”.
Then “QVQLVESRGGLVQAGGSLRLSFGASGRTFRWYAMVWYRQAPGKERELVAAITYSVGSTYYADSVKGRFTISRDNAKNTVYLQMNSLKPEDSAVYSCAADSYPYRYRGKYSRLDYWGQGTQVTVSS”, with “low polyreactivity”; and “QDQLVESGGGLVQAGGSLRLSCAASGLTFRLYAMGSYRQAPAKEREWVAAITSSSGSTYYADSVKGRFTISRDTANYTVYLQMNSLKPEDTAVYYCNAVRYTTQTPNVDYGYWGLGTQVTVSS”, with “high polyreactivity”.
Then “QVQLQESGGLVQAGGLRLSCAASGSDSYQEDMAWYRQAPGKERELVATISFGANTNYADSVKGRFTISRDNAKNTVYLQMNSLKPEDTAVYYCAAESLFDDYYGYWGQGTQVTVSS”, with “low polyreactivity”; and “QVQLVESGVGLVQAGGSLRLSCAPSGFTFGRYAMGWYRQAPGKEREFVASISRSGGSTNYADSVKGRFTISRDNAKNTVYLQMNSLKPEDTAVYYCARDSWLHYRWGYDYWGQGTQVTVSS”, with “high polyreactivity”.
Then “QVQLVESGGGLVQAGGSLRLSCAASGRTFYYYAMGWYRLAPGKERELVAAISNRGGSTYYADSVKGRFTISRDNAKNTVYLQMNCLKPEDTAVYYCARRYSYLYTYGSWGQGPQVTVSS”, with “high polyreactivity”; and “QVQLVESGGGLVQAGGSLRLSCAASGSNFSPNAMGWYRQAPGKERELVAAIDTRDGTTYYADSVKGRFTISRDNAKNTVYLQMNSLKPEDTAVYYCAAGGPVRYGIATPTGAKRFGYWGQGTQVTVSS”, with “low polyreactivity”.
Regarding “QVQLVESGGGLVQAGGSLRLSCAASGSTIRAYGMGWYRQAPGKERELVAAISYSGDSTYYADSVKGRFTISRDNAKNTVYLQMNSLKPEDTAVYYCDADYSYRHYEYDYWGQGTQVTVSS”, the “polyreactivity (PSR sort gate)” value was “low polyreactivity”.
“QVQLVESGGGLDQAGGSLRLTCAASGSTFRVYAKGSYSQAPRKERELGAAISRSGGSTTDYADSVKGRFTISRENAKNTVYLQINSLNPEDTAVYFCSDRDYKVQKIYDYWGLGTQVTVSS”: the “polyreactivity (PSR sort gate)” value is “low polyreactivity”.
As to “QVQLVEAGGGVVQAGGSLRLSCAASGIIFYPYALGWYRQAPGKERELVADITSGGGTNYADSVKGRFTISRDNAKNTVYLQMNSLKPEDTAVYDCAAEVRGYHWGTYYEFYYWGQGTQVTVSS”, the “polyreactivity (PSR sort gate)” value is on record as “low polyreactivity”.
Then “QFQLVESGGGLVQAGGSLRLSCAASGFIFTNVMGWYRQSPGKERELVAAISGRGTSTYYADSVKGRFTISRDNAKNTVYLQMNSLKPEDTAVYYCAAYFTSRLDYWGQGTQVTVSS”, with “high polyreactivity”.
For “QVQLEESGGGLVQAGGSLRLSCAASGLIFGHNAMGWYRQAPGKERELVAAISRSGTSTYYADSVKGRFTISRDNAKNTVYLQMNSLKPEDNAVYYCAAENYYTAGGSGPIYRRVYWGQGTQVTVSS”, the “polyreactivity (PSR sort gate)” value is given as “low polyreactivity”.
Take “QVQLVESGGRLVQAGGSLRLSCAASGLTITRNAMGWYRQAPGKERELVAAISWSGGSTYYADSVKGRFTISRDNAKNTVYLQMNSLKPEDTAVYDCAAEPYKQYTGYYYSGFEYWGQGTQVTVSS”: the “polyreactivity (PSR sort gate)” value is given as “high polyreactivity”.
